Results on one substance are retold here after US6045793.

This experiment has as its target [Met-(-1)]rOncG20 (Rana pipiens).

Consider “Placental ribonuclease inhibitor (from UniProt P13489)”, for which the Fold Difference of IC50 (ng/ml) in rabbit reticulocyte lysate, (+)PRI against (-)PRI turned out to be 0.9 fold and the IC50 (ng/ml) of the RNase for inhibition of protein synthesis in rabbit reticulocyte lysate, (+)PRI was found to be 24 ng/mL.
